The values that follow come from patent publication US4740588A, “Novel substrate peptides” (Washington University, priority 1986, dated 1988).

Residues, ends and D or L forms follow the SMILES beside them.

The target in data set [1] is T1, N-myristoylglycylpeptide synthetase (N-myristoyl transferase) (Saccharomyces cerevisiae, UniProt P14743).
T1 construct: using crude membrane fractions from yeast with changes as indicated; endogenous in cells; host or cells: S. cerevisiae strain JR153 (protease-deficient), crude membrane pellet of the cell lysate
T1 sequence (P14743 1-455): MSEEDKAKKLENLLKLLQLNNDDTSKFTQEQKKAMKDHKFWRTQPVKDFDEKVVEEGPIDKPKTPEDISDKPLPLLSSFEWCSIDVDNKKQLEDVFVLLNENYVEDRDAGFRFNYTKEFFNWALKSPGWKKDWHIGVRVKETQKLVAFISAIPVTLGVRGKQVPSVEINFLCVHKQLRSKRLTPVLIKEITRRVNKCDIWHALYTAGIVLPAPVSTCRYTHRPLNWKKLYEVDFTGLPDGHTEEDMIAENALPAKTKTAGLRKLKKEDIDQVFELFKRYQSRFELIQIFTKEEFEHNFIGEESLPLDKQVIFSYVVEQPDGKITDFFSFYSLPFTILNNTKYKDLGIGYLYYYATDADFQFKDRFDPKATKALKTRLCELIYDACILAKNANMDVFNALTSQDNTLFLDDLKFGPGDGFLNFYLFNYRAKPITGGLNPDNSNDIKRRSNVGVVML
In words: Assay for N-myristoylglycylpeptide synthetase activity, crude membrane fractions from yeast. The conditions noted are these: for activity as substrate for myristoylglycylpeptide synthetase: result in words. The class given is biochemical. On the procedure:
The synthetic octapeptide […]was used to identify a unique enzymatic activity which transfers myristic acid to the amino terminal glycine of this and other peptides. […] The enzyme activity was determined in an in vitro assay which measures the transfer of [^3 H]-myristic acid to the acceptor peptide. The transfer reaction is dependent on adenosine triphosphate (ATP) and coenzyme A (CoA). The enzymatic product was then identified by high performance liquid chromatography (HPLC) by co-elution with a chemically synthesized myristoyl peptide standard. […] Both contained M-myristoyl glycine.
Preparation of yeast extract for the assay of N-myristoylglycylpeptide synthetase activity. Yeast cultures were grown as described above to O.D. 660 nm of 1 to 3. Cells from 40 ml of culture were collected by centrifugation at 4° C. at 7600×g for 10 minutes. The supernatant was decanted, the cell pellet was resuspended by pipetting into 1 ml of cold 10 mM Tris, pH 7.4, transferred to a 1.5 ml conical polypropylene centrifuge tube, and the cells were then repelleted at 4° C. at 7600×g for 10 minutes. Cells were resuspended in 400 μl of cold assay lysis buffer (10 mM Tris, pH 7.4, 1 mM dithiothreitol,0.1 mM ethylene glycol-bis(β-aminoethyl ether) N,N,N',N'-tetraacetic acid (EGTA), 10 μg/ml Aprotinin) by pipetting. Approximately 400 μl of 0.5 mm glass beads were added to the resuspended cells, and the cells were lysed by vortexing as described above for lysis of radioactively labeled cells. After allowing the beads to settle, the lysate was collected and cellular debris was removed by centrifugation at 4° C. at 1000×g for 10 minutes. The supernatant was then centrifuged at 4° C. at 45,000 rpm for 30 minutes in a Beckman 75 Ti rotor. The supernatant was removed, and the crude membrane pellet was resuspended by pipetting into 400 μl of cold assay lysis buffer. Aliquots of the three cellular fractions were either assayed immediately or stored at -60° C. The activity associated with crude membranes was stable at -60° C. for at least 3 months. Protein was determined by the method of Peterson, Anal. Biochem. 83, 346-356 (1977).
Assay for N-myristoylglycylpeptide synthetase activity. [^3 H]Fatty acyl CoA was synthesized enzymatically and added to the incubation as follows. […] Typically, 40% to 50% of the [^3 H]fatty acid was converted to its CoA ester by this procedure as measured by determining the radioactivity remaining in the reaction after acidification with 6 N HCl to pH 2.0 and extraction 6 times with 5 volumes of heptane, a modification of the method of Hosaka et al., Meth. […]

Substrate in data set [2]: C[C@H](NC(=O)[C@H](C)NC(=O)[C@H](CCC(=O)O)NC(=O)[C@H](CC(N)=O)NC(=O)CN)C(=O)N[C@@H](C)C(=O)N[C@@H](CCCNC(=N)N)C(=O)N[C@@H](CCCNC(=N)N)C(N)=O
In words: Peptide substrate specificity (Km, Vmax) of partially purified yeast myristoylating enzyme. The data set is classed as biochemical, S. cerevisiae strain JR153. The conditions noted are these: other: peptide as acyl acceptor, 1 μCi [3H]-myristic acid per tube, 30.0 °C.

Substrate in data set [3]: C[C@H](NC(=O)[C@H](C)NC(=O)[C@H](Cc1ccccc1)NC(=O)[C@H](CC(N)=O)NC(=O)CN)C(=O)N[C@@H](C)C(=O)N[C@@H](CCCNC(=N)N)C(=O)N[C@@H](CCCNC(=N)N)C(N)=O
The description is as above. The data set is classed as biochemical, S. cerevisiae strain JR153. Particulars: other: peptide as acyl acceptor, 1 μCi [3H]-myristic acid per tube, 30.0 °C.

Substrate in data set [4]: C[C@H](NC(=O)[C@H](C)NC(=O)[C@H](C)NC(=O)[C@H](C)NC(=O)[C@H](CC(N)=O)NC(=O)CN)C(N)=O
The data set is described as above. The data set is classed as biochemical, S. cerevisiae strain JR153. Particulars: other: peptide as acyl acceptor, 1 μCi [3H]-myristic acid per tube, 30.0 °C.

Substrate in data set [5]: C[C@H](NC(=O)[C@H](C)NC(=O)[C@H](CC(N)=O)NC(=O)CN)C(=O)N[C@@H](CO)C(N)=O
Described as above. The conditions noted are these: other: peptide as acyl acceptor, 1 μCi [3H]-myristic acid per tube, 30.0 °C. The class given is biochemical, S. cerevisiae strain JR153.

Substrate in data set [6]: C[C@H](NC(=O)CN)C(=O)N[C@@H](CCC(N)=O)C(=O)N[C@@H](C)C(=O)N[C@@H](C)C(=O)N[C@@H](C)C(=O)N[C@@H](CCCNC(=N)N)C(=O)N[C@@H](CCCNC(=N)N)C(N)=O
The data set is described as above. The class given is biochemical, S. cerevisiae strain JR153. Particulars: other: peptide as acyl acceptor, 1 μCi [3H]-myristic acid per tube, 30.0 °C.

Substrate in data set [7]: C[C@H](NC(=O)[C@H](C)NC(=O)[C@H](C)NC(=O)[C@H](CO)NC(=O)CN)C(=O)N[C@@H](C)C(=O)N[C@@H](CCCNC(=N)N)C(=O)N[C@@H](CCCNC(=N)N)C(N)=O
The data set is described as above. The class given is biochemical, S. cerevisiae strain JR153. The conditions noted are these: other: peptide as acyl acceptor, 1 μCi [3H]-myristic acid per tube, 30.0 °C.

Substrate in data set [8]: C[C@H](NC(=O)[C@H](C)NC(=O)[C@H](CCCNC(=N)N)NC(=O)[C@H](CC(N)=O)NC(=O)CN)C(=O)N[C@@H](C)C(=O)N[C@@H](CCCNC(=N)N)C(=O)N[C@@H](CCCNC(=N)N)C(N)=O
The data set is described as above. The data set is classed as biochemical, S. cerevisiae strain JR153. The conditions noted are these: other: peptide as acyl acceptor, 1 μCi [3H]-myristic acid per tube, 30.0 °C.

Substrate in data set [9]: C[C@H](NC(=O)[C@H](C)NC(=O)[C@H](C)NC(=O)[C@H](CCC(N)=O)NC(=O)CN)C(=O)N[C@@H](C)C(=O)N[C@@H](CCCNC(=N)N)C(=O)N[C@@H](CCCNC(=N)N)C(N)=O
The description is as above. The data set is classed as biochemical, S. cerevisiae strain JR153. Particulars: other: peptide as acyl acceptor, 1 μCi [3H]-myristic acid per tube, 30.0 °C.

Substrate in data set [10]: CC(C)C[C@H](NC(=O)[C@@H]1CCCN1C(=O)[C@H](Cc1ccc(O)cc1)NC(=O)[C@H](CO)NC(=O)[C@H](C)NC(=O)[C@H](CCC(=O)O)NC(=O)[C@H](CC(N)=O)NC(=O)CN)C(N)=O
The data set is described as above. The data set is classed as biochemical, S. cerevisiae strain JR153. The conditions noted are these: other: peptide as acyl acceptor, 1 μCi [3H]-myristic acid per tube, 30.0 °C.

Turning to GSSKSPKDPS, in [1] (Test 3: 1 mM test peptide added as competitor, 18 μM GlyAsnAlaAlaAlaAlaArgArg substrate, control 26.7), the “Rate of Myristoylpeptide Synthesis” value was determined as 27.4 DPM × 10^3 /10 min. Moreover, in data set [1], the “activity as substrate for myristoylglycylpeptide synthetase” value is “inactive”.
Turning to `NCC(=O)N[C@@H](CC(N)=O)C(N)=O` [GN, Gly-Asn] (H-Gly-Asn-NH2), the “activity as substrate for myristoylglycylpeptide synthetase” value in [1] was “inactive”.
The same measure, in the same setting: in the case of `N=C(N)NCCC[C@H](NC(=O)[C@@H]1CCCN1C(=O)CN)C(=O)N1CCC[C@H]1C(N)=O` [GPRP, Gly-Pro-Arg-Pro] (H-GPRP-NH2) it was “inactive”.

B1: Yeast Myristoylating Enzyme (Saccharomyces cerevisiae S288C) (protein)
chain: T1 sequence (P14743 1-455)
notes: partially purified from a crude homogenate of the cultured yeast cells; endogenous in cells; host or cells: S. cerevisiae strain JR153
Consider B1, for which the Michaelis constant (Km) came to 1800 µM in [2]; 60 µM in [3]; 1300 µM in [4]; 900 µM in data set [5]; 1400 µM in data set [6]; 1700 µM in data set [7]. The results for the Michaelis-Menten constant (Km) in data set [8], in [9] and in data set [10] were 400 µM, 70 µM and 2300 µM, respectively.

One may read the Km as the concentration of substrate that gives half-maximal velocity.
